Test results published in US20240010687A1 (University of Washington, published 2024).

B1: A113_c2arms9_Ring (D3-C5) (designed binder)
chain: MGDRSEHAKKLKTFLENLRRHLDRLDKHIKQLRDILSENPEDERVKDVIDLSERSVRIVKTVIKIFEDSVRELEKAILWLAEELAKSPDPEDLKRAVELARAVIEANPGSNLSRKAMEIIERAARELSKLPDPEAQRTAIEAASQLATMAAATGNTDQVRRAAELMVEIARLAGTEEAQDLALDALLDVLETALQIATKIIDDANKLLEKLRRSERKDPKVVETYVELLKRHEEAVRLLLEVARVHEELVRFTIIEEKVRSPDCEDIRDAVREAEELLRENPSEMAEELLRRAIEAAVRCPDCEAIREAVRAAEELLRENPSTEAEELLRRAIEAAVRCPDCEAIREAVRAAEELLRENPSEEAKELLRRAIESAKKCPDPEAQREAKRAEEELRKEGSHHHHHH
notes: De novo designed C5 homopentameric ring; also called C5 ring; ring of the D3-C5 rotor
B2: A15.5R82_Ring (C3-C3) (designed binder)
chain: MGVEELLLLARAAHHSGTTVEEAYKLAKKLGISVKELLLLARAAHNSGTTVEEAYKLALKLGISVEELLLLAKAAHYSGTTVEEAYKLALELGISVRELLLLAKAAHFAGRTVREAYALELALGALRLEDRARELIKEAEKKGDPEKLREALEALEEAVRLVEEAIKLRPDMDLAVEIAVRLARMLKRVAELLQELAKKTGDPELLKLALRALEVAVRAVELAIKSNPDNDEAVETAVRLARELKKVAEELQERAKKTGDPELLKLALRALEVAVRAVELAIKSNPDNEEAVETAKRLAEELRKVAELLEERAKETGDPELQELAKRAKEVADRARELAKKSGSHHHHHH
notes: C3 ring of three subunits, each fused to DHR82; also called C3 ring

Columns and labels:
[1] = biological target: T1, A113_c2arms9_Axle (D3-C5); experiment: EM, biolayer interferometry, SEC and SAXS of the assembled rotor
T1 construct: De novo designed D3 homohexameric axle; For biolayer interferometry it was Avi-tagged and biotinylated; also called D3 axle; axle of the D3-C5 rotor
T1 chain: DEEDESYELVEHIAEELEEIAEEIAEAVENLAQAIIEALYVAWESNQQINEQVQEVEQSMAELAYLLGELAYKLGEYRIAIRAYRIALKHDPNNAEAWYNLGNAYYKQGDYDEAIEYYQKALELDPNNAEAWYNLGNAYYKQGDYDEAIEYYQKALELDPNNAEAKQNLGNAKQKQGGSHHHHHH
Protocol: FIG. 13. Biolayer interferometry assays measuring in vitro assembly of ring and axle parts into a full rotary system. For each 6 designs, the equilibrium binding curves from biolayer interferometry binding assays is shown on the left and the corresponding Biolayer interferometry kinetic binding traces shown on the right. Biotinylated axles were immobilized on the tip and the binding in a solution of fre rings was measured. For both D3-C5 and D3-C3, a fresh ring solution was prepared by buffer exchange from citrate buffer to TBS with reducing agent, and immediately used for binding assays.
Protein samples were purified by SEC in 25 mM Tris pH 8.0, 25 mM NaCl and 1% glycerol; elution fractions corresponding to the protein were further concentrated using 3K protein concentrators (Millipore Sigma) and the flow-through was used as blank for buffer subtraction. SAXS Scattering measurements were performed at the SIBYLS 12.3.1 beamline at the Advanced Light Source. […] Collected data were processed using the SAXS FrameSlice™ online server and analysed using the ScÅtter software package(23). […]

A15.5R82_Axle (C3-C3) = biological target: T2, A15.5R82_Axle (C3-C3); experiment: single particle cryoEM of the assembled rotor (6.5 Å)
T2 construct: C3 homotrimeric axle with DHR arms; also called C3 axle
T2 chain: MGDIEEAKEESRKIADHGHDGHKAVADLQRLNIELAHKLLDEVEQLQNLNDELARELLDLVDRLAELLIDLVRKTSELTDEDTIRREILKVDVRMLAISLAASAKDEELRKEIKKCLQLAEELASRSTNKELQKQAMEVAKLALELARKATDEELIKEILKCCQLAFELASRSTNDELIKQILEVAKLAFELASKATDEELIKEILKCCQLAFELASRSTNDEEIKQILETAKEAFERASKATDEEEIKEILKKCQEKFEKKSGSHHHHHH
Protocol: Multiple datasets were collected for each design and combined early on during processing. See table 1 and processing flowcharts for details. Briefly, images were manually curated to remove poor quality acquisitions such as bad ice or large regions of carbon. Dose-weighting and image alignment of all 50 frames was carried out using MotionCor2 (56) with 5×5 patch or with cryosparc v2 patch alignment tool with default parameters. Super-resolution krios data was binned 2X during alignment. Initial CTF parameters were estimated using CTFfind4 (57). Particle picking was done with a gaussian blob picker and in some cases followed by a template picker. Particles were extensively classified in 2D to remove junk particles and designs which may not have been intact or were damaged, yielding in some cases relatively few particles. […] In addition, the expected motion of the rotors may have introduced further heterogeneity, limiting classification efforts. Starting models for all designs were always obtained ab initio, despite clear evidence of the expected design in 2D. […] FSC 0.143 curves were generated by exporting half maps to relion for post-process. […] For density modification in Phenix (59), we used as input the exported half maps from cryosparc with default params at 100 bins and local filtering with a factor of 5. […] Directional FSC calculated using remote 3DF SC processing tool. […]

Binder	binding result [1]	binding result (A15.5R82_Axle (C3-C3))
B1	binds	–
B2	–	binds
